The values that follow come from patent publication US20170096493A1 (EISAI R AND D MANAGEMENT, published 2017).

For orientation: Kd means the constant that tells how readily two partners part at equilibrium. Higher therefore signals weaker binding. The koff is a measure of how fast the partners let go of each other. Low values mean slow dissociation, high ones fast dissociation. The term kon denotes a measure of how fast the partners come together.

Assay [1] addresses T1, Human Notch4-NRR domain Fc fusion protein (human, UniProt Q99466 1046-1445, limits assumed).
T1 construct: Expressed in a CHO cell line, used from culture supernatant; 1 is named; also called Human Notch4-NRR Fusion Protein; not shown: Fc
T1 sequence: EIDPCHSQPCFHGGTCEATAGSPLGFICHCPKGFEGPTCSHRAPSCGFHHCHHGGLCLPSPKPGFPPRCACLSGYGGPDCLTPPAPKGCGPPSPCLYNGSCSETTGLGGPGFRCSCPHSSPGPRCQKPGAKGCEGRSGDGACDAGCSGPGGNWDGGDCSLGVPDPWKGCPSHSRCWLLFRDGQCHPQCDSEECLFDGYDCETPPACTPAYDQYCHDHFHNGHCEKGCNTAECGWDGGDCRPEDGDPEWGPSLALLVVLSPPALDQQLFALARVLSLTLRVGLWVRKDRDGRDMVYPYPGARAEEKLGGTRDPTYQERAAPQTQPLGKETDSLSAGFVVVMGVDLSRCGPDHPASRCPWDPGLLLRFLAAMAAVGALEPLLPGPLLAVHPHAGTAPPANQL
Nature of the assay: SPR (Biacore) as for Table 30; Notch4-NRR-Fc captured, antibody injected; averaged, N=1. The protocol:
(§1) Kinetic analysis of further anti-Notch4 inhibitory humanized antibodies was carried out as follows. Human Notch4-NRR domain Fc fusion proteins were expressed with a CHO cell line. The antigen in the culture supernatant was captured by the anti-human Notch4 antibody fixed on a CM5 sensor chip that recognizes different epitopes of human Notch4. The humanized anti-human Notch4 antibody was then injected onto the sensor chip at various concentrations. The interaction and disassociation constants thereof were calculated according to manufacturer's instructions.
For orientation: In SPR one partner is held on a chip, and binding of the other changes the refractive index at the surface.

Assay [2] has as its target T1, Human Notch4-NRR domain Fc fusion …. Description: SPR (Biacore); Notch4-NRR-Fc captured by another anti-Notch4 antibody on CM5, antibody injected. On the procedure:
as §1

The target is the same in assay [3]. Description: SPR (Biacore) as for Table 30; Notch4-NRR-Fc captured, antibody injected; averaged, N=5. On the procedure:
as §1

Assay [4] has as its target Notch4 with a part of the intracellular domain substituted with GAL4 DNA binding domain, on b.end3 reporter …. Description: cell-based or functional assay.
In assay [5] the target is T1, Human Notch4-NRR domain Fc fusion …. Nature of the assay: SPR (Biacore) as for Table 30; Notch4-NRR-Fc captured, antibody injected; averaged, N=2. The protocol:
as §1

Assay [6] has the same target. Description: SPR (Biacore) as for Table 30; Notch4-NRR-Fc captured, antibody injected; averaged, N=3. The protocol: as §1

B1: HA1L3 (antibody, human IgG2, kappa, V domains shown)
VH: EVQLVESGGGLVQPGGSLRLSCAASGFTFSSYGMSWVRQAPGKGLEYVSTINSNGGRTYYANSVKGRFTISRDNSKNTLYLQMGSLRAEDMAVYYCARDQGFAYWGQGTLVTVSS
VL: EIVMTQSPATLSVSPGERATLSCKASQDVGTAVAWYQQKPGQAPRLLIYWASTRHTGIPARFSGSGSGTEFTLTISSLQSEDFAVYYCQQYSSYPWTFGQGTKVEIKR
notes: Humanized IgG2 (V234A, G237A)/κ; also called No. 23
As to B1, in assay [1], the Kd worked out at 14700 pM, the koff turned out to be 0.524 s⁻¹ and the kon worked out at 3.57e+07 M⁻¹ s⁻¹.

B2: HA1L1 (antibody, human IgG2, kappa, V domains shown)
VH: EVQLVESGGGLVQPGGSLRLSCAASGFTFSSYGMSWVRQAPGKGLEYVSTINSNGGRTYYANSVKGRFTISRDNSKNTLYLQMGSLRAEDMAVYYCARDQGFAYWGQGTLVTVSS
VL: DIQMTQSPSSLSASVGDRVTITCKASQDVGTAVAWYQQKPGKVPKLLIYWASTRHTGVPSRFSGSGSGTDFTLTISSLQPEDVATYYCQQYSSYPWTFGQGTKVEIKR
notes: Humanized IgG2 (V234A, G237A)/κ; also called No. 21
B2: in assay [1], the Kd is 453000 pM, the koff was determined as 0.0279 s⁻¹ and the kon was 61500 M⁻¹ s⁻¹.

B3: HA1L4 (antibody, human IgG2, kappa, V domains shown)
VH: EVQLVESGGGLVQPGGSLRLSCAASGFTFSSYGMSWVRQAPGKGLEYVSTINSNGGRTYYANSVKGRFTISRDNSKNTLYLQMGSLRAEDMAVYYCARDQGFAYWGQGTLVTVSS
VL: EIVMTQSPATLSVSPGERATLSCKASQDVGTAVAWYQQKPGQAPRLLIYWASTRHTGIPARFSGSGSGTEFTLTISSLQSEDFAVYFCQQYSSYPWTFGQGTKVEIKR
notes: Humanized IgG2 (V234A, G237A)/κ; also called No. 24
Consider B3, for which, in assay [1], the Kd is 9540 pM, the koff is 0.113 s⁻¹ and the kon is 1.18e+07 M⁻¹ s⁻¹.

B4: Antibody C (antibody, human IgG2, kappa)
heavy: EVQLVESGGGLVQPGGSLRLSCAASGFTFSSYGMSWVRQAPGKGLELVSTINSNGGRTYYPDSVKGRFTISRDNSKNTLYLQMGSLRAEDMAVYYCARDQGFAYWGQGTLVTVSSASTKGPSVFPLAPCSRSTSESTAALGCLVKDYFPEPVTVSWNSGALTSGVHTFPAVLQSSGLYSLSSVVTVPSSNFGTQTYTCNVDHKPSNTKVDKTVERKCCVECPPCPAPPAAAPSVFLFPPKPKDTLMISRTPEVTCVVVDVSHEDPEVQFNWYVDGVEVHNAKTKPREEQFNSTFRVVSVLTVVHQDWLNGKEYKCKVSNKGLPAPIEKTISKTKGQPREPQVYTLPPSREEMTKNQVSLTCLVKGFYPSDIAVEWESNGQPENNYKTTPPMLDSDGSFFLYSKLTVDKSRWQQGNVFSCSVMHEALHNHYTQKSLSLSPG
light: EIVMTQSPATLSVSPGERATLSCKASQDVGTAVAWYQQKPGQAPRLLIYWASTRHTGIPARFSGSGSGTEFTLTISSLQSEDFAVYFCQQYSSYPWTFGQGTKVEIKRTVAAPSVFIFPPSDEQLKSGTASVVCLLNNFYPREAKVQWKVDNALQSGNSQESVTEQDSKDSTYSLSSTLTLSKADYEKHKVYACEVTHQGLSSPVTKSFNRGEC
notes: Humanized IgG2 (V234A, G237A)/κ; also called HK2L4 (Lys-); HK2L4(Lys-)
In assay [2], B4 registered a Kd of 556 pM, a koff of 0.00106 s⁻¹ and a kon of 1.91e+06 M⁻¹ s⁻¹. For the same molecule, in assay [3], the Kd came to 715 pM, the koff is 0.00127 s⁻¹ and the kon turned out to be 1.81e+06 M⁻¹ s⁻¹. In addition, in assay [4], the “% of Control (relative luminescence), Notch4-GAL4 luciferase reporter assay, antibody at 10 µg/ml” value (from here on “% of Control (relative luminescence)”) was -9.9 % of Control.

B5: HK2L5(Lys-) (antibody, human IgG2, kappa)
heavy: EVQLVESGGGLVQPGGSLRLSCAASGFTFSSYGMSWVRQAPGKGLELVSTINSNGGRTYYPDSVKGRFTISRDNSKNTLYLQMGSLRAEDMAVYYCARDQGFAYWGQGTLVTVSSASTKGPSVFPLAPCSRSTSESTAALGCLVKDYFPEPVTVSWNSGALTSGVHTFPAVLQSSGLYSLSSVVTVPSSNFGTQTYTCNVDHKPSNTKVDKTVERKCCVECPPCPAPPAAAPSVFLFPPKPKDTLMISRTPEVTCVVVDVSHEDPEVQFNWYVDGVEVHNAKTKPREEQFNSTFRVVSVLTVVHQDWLNGKEYKCKVSNKGLPAPIEKTISKTKGQPREPQVYTLPPSREEMTKNQVSLTCLVKGFYPSDIAVEWESNGQPENNYKTTPPMLDSDGSFFLYSKLTVDKSRWQQGNVFSCSVMHEALHNHYTQKSLSLSPG
light: DIQMTQSPSSLSASVGDRVTITCKASQDVGTAVAWYQQKPGKSPKLLIYWASTRHTGVPSRFSGSGSGTDFTLTISSLQPEDVATYFCQQYSSYPWTFGQGTKVEIKRTVAAPSVFIFPPSDEQLKSGTASVVCLLNNFYPREAKVQWKVDNALQSGNSQESVTEQDSKDSTYSLSSTLTLSKADYEKHKVYACEVTHQGLSSPVTKSFNRGEC
notes: Humanized IgG2 (V234A, G237A)/κ; also called No. 36
In assay [3], B5 yielded an equilibrium dissociation constant (Kd) of 617 pM, a koff of 0.00113 s⁻¹ and a kon of 1.93e+06 M⁻¹ s⁻¹.

B6: Antibody F (antibody, human IgG2, kappa)
heavy: EVQLVESGGGLVQPGGSLRLSCAASGFTFSSYGMSWVRQAPGKGLELVSTINSNGGRTYYANSVKGRFTISRDNSKNTLYLQMGSLRAEDMAVYYCARDQGFAYWGQGTLVTVSSASTKGPSVFPLAPCSRSTSESTAALGCLVKDYFPEPVTVSWNSGALTSGVHTFPAVLQSSGLYSLSSVVTVPSSNFGTQTYTCNVDHKPSNTKVDKTVERKCCVECPPCPAPPAAAPSVFLFPPKPKDTLMISRTPEVTCVVVDVSHEDPEVQFNWYVDGVEVHNAKTKPREEQFNSTFRVVSVLTVVHQDWLNGKEYKCKVSNKGLPAPIEKTISKTKGQPREPQVYTLPPSREEMTKNQVSLTCLVKGFYPSDIAVEWESNGQPENNYKTTPPMLDSDGSFFLYSKLTVDKSRWQQGNVFSCSVMHEALHNHYTQKSLSLSPG
light: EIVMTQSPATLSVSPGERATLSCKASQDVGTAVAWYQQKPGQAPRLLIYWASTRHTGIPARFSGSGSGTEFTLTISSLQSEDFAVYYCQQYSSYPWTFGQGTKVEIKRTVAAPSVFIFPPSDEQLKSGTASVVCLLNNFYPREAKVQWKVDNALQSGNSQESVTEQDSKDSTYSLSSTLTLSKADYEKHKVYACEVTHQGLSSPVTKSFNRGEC
notes: Humanized IgG2 (V234A, G237A)/κ; also called HA2L3 (Lys-); HA2L3(Lys-)
With B6, in assay [2], binding was put at a Kd of 982 pM, the koff is 0.00136 s⁻¹ and the kon came out at 1.55e+06 M⁻¹ s⁻¹. In assay [5], this molecule had a Kd of 434 pM, a koff of 0.000894 s⁻¹ and a kon of 3.5e+06 M⁻¹ s⁻¹. Moreover, in assay [4], the “% of Control (relative luminescence)” value was 17 % of Control.

B7: Antibody A (antibody, human IgG2, kappa)
heavy: EVQLVESGGGLVQPGGSLRLSCAASGFTFSSYGMSWVRQAPGKGLELVSTINSNGGRTYYPDSVKGRFTISRDNSKNTLYLQMGSLRAEDMAVYYCARDQGFAYWGQGTLVTVSSASTKGPSVFPLAPCSRSTSESTAALGCLVKDYFPEPVTVSWNSGALTSGVHTFPAVLQSSGLYSLSSVVTVPSSNFGTQTYTCNVDHKPSNTKVDKTVERKCCVECPPCPAPPAAAPSVFLFPPKPKDTLMISRTPEVTCVVVDVSHEDPEVQFNWYVDGVEVHNAKTKPREEQFNSTFRVVSVLTVVHQDWLNGKEYKCKVSNKGLPAPIEKTISKTKGQPREPQVYTLPPSREEMTKNQVSLTCLVKGFYPSDIAVEWESNGQPENNYKTTPPMLDSDGSFFLYSKLTVDKSRWQQGNVFSCSVMHEALHNHYTQKSLSLSPG
light: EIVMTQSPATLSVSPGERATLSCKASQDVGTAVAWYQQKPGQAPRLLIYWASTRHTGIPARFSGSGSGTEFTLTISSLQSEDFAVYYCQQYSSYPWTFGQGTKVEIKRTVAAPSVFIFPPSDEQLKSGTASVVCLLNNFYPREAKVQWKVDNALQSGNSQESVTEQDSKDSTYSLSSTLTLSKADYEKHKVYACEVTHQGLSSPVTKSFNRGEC
notes: Humanized IgG2 (V234A, G237A)/κ; also called HK2L3 (Lys-); HK2L3(Lys-)
In the case of B7, in assay [2], the Kd turned out to be 555 pM, the koff amounted to 0.000889 s⁻¹ and the kon is 1.62e+06 M⁻¹ s⁻¹. In assay [5], this molecule registered a dissociation constant Kd of 395 pM, a koff of 0.00124 s⁻¹ and a kon of 5.05e+06 M⁻¹ s⁻¹. Besides, in assay [4], the “% of Control (relative luminescence)” value was 0.1 % of Control.

B8: HA2L4(Lys-) (antibody, human IgG2, kappa)
heavy: EVQLVESGGGLVQPGGSLRLSCAASGFTFSSYGMSWVRQAPGKGLELVSTINSNGGRTYYANSVKGRFTISRDNSKNTLYLQMGSLRAEDMAVYYCARDQGFAYWGQGTLVTVSSASTKGPSVFPLAPCSRSTSESTAALGCLVKDYFPEPVTVSWNSGALTSGVHTFPAVLQSSGLYSLSSVVTVPSSNFGTQTYTCNVDHKPSNTKVDKTVERKCCVECPPCPAPPAAAPSVFLFPPKPKDTLMISRTPEVTCVVVDVSHEDPEVQFNWYVDGVEVHNAKTKPREEQFNSTFRVVSVLTVVHQDWLNGKEYKCKVSNKGLPAPIEKTISKTKGQPREPQVYTLPPSREEMTKNQVSLTCLVKGFYPSDIAVEWESNGQPENNYKTTPPMLDSDGSFFLYSKLTVDKSRWQQGNVFSCSVMHEALHNHYTQKSLSLSPG
light: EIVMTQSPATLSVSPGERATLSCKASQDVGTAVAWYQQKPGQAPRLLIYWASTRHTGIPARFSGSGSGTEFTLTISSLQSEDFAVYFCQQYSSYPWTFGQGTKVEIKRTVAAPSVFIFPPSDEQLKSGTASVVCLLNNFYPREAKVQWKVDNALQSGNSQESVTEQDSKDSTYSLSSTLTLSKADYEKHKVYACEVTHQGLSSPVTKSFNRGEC
notes: Humanized IgG2 (V234A, G237A)/κ; also called No. 32
In assay [3], B8 displayed a Kd of 830 pM, a koff of 0.00162 s⁻¹ and a kon of 2.43e+06 M⁻¹ s⁻¹.

B9: Antibody E (antibody, human IgG2, kappa, V domains shown)
VH: EVQLVESGGGLVQPGGSLRLSCAASGFTFSSYGMSWVRQAPGKGLELVSTINSNGGRTYYPDSVKGRFTISRDNSKNTLYLQMGSLRAEDMAVYYCARDQGFAYWGQGTLVTVSS
VL: EIVMTQSPATLSVSPGERATLSCKASQDVGTAVAWYQQKPGQSPRLLIYWASTRHTGIPARFSGSGSGTEFTLTISSLQSEDFAVYFCQQYSSYPWTFGQGTKVEIKR
notes: Humanized IgG2 (V234A, G237A)/κ; also called HK2L6 (Lys-); HK2L6(Lys-)
As for B9, in assay [2], the Kd was 519 pM, the koff came to 0.00115 s⁻¹ and the kon was 2.23e+06 M⁻¹ s⁻¹. Besides, in assay [6], the Kd is 620 pM, the koff was 0.00115 s⁻¹ and the kon turned out to be 1.87e+06 M⁻¹ s⁻¹. In addition, the “% of Control (relative luminescence)” value in assay [4] is 5 % of Control.
